Assay results: the supplement of paper PMC11780869

System: Bacillus subtilis
Assay: cleaved RNA product abundance (RNA/gDNA barcode ratio) relative to median wild-type variant (ratio to wild type); higher = more accumulation of the downstream cleavage product
Conditions: cleavage site: cggR-gapA (positions -7 to +36 mutated)
How it was run: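 Reporter mRNAs (truncated aprE or tetM) carrying barcoded, mutagenized RNase Y cleavage-site windows were made from oligos with a 9% error rate and integrated into the B. subtilis chromosome. Cultures grew in LB at 37°C from OD600 0.0003 to 0.3. Cleaved RNA was gel-selected, reverse transcribed and barcode-sequenced alongside genomic DNA barcodes, with UMI collapsing. Cleaved product abundance is the RNA:gDNA barcode ratio per variant, scaled to the median wild-type variant.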

[1] = experiment (reporter, strain, medium): exp 2b: truncated aprE reporter, strain BJT200
[2] = experiment (reporter, strain, medium): exp 4a: truncated aprE reporter, strain BJT201 with 2% xylose (RNase J1 expressed)

“ACAGACGAAGGAGCCGCAAAGAAGTTATTAAGGGATGAATAAACACTCAATATAAATATCTCTCACTTATTTAAA” was tested, and the “cleaved RNA product abundance” value [1] was 0.0698 and the “cleaved RNA product abundance” value [2] was 0.172.
For “ACAGACGAAGGAGCCGCAAAGAAGTTATTAAGGGATGAATAAACCATCAATATAAATATCTCTCACTTATTTAAA”, the “cleaved RNA product abundance” value [1] was 0.125 and the “cleaved RNA product abundance” value [2] was 0.101.
In the case of “ACAGACGAAGGAGCCGCAAAGAAGTTATTAAGGGATGAATAAACCCACAATATAAATATCTCTCACTTATTTAAA”, the “cleaved RNA product abundance” value [1] is reported as 0.143 and the “cleaved RNA product abundance” value [2] is reported as 0.0828.
In the case of “ACAGACGAAGGAGCCGCAAAGAAGTTATTAAGGGATGAATAAACCCGCAATATAAATATCTCTCACTTATTTAAA”, the “cleaved RNA product abundance” value [2] is reported as 0.103.
“ACAGACGAAGGAGCCGCAAAGAAGTTATTAAGGGATGAATAAACCCTAAATATAAATATCTCTCACTTATTTAAA” was tested, and the “cleaved RNA product abundance” value [2] was 0.4.
With “ACAGACGAAGGAGCCGCAAAGAAGTTATTAAGGGATGAATAAACCCTCAAAATAAATATCTCTCACTTATTTAAA” the “cleaved RNA product abundance” value [1] was 0.196 and the “cleaved RNA product abundance” value [2] was 0.198.
With “ACAGACGAAGGAGCCGCAAAGAAGTTATTAAGGGATGAATAAACCCTCAACATAAATATCTCTCACTTATTTAAA” the “cleaved RNA product abundance” value [1] was 0.122 and the “cleaved RNA product abundance” value [2] was 0.0675.
In the case of “ACAGACGAAGGAGCCGCAAAGAAGTTATTAAGGGATGAATAAACCCTCAATATAAAAATCTCTCACTTATTTAAA”, the “cleaved RNA product abundance” value [2] is reported as 0.519.
In the case of “ACAGACGAAGGAGCCGCAAAGAAGTTATTAAGGGATGAATAAACCCTCAATATAAATAACTCTCACTTATTTAAA”, the “cleaved RNA product abundance” value [2] is reported as 0.464.
“ACAGACGAAGGAGCCGCAAAGAAGTTATTAAGGGATGAATAAACCCTCAATATAAATATCTCTCACTTATTTAAA” was tested, and the “cleaved RNA product abundance” value [1] was 0.443, the “cleaved RNA product abundance” value [2] was 0.52 and the “cleaved RNA product abundance” value (experiment (reporter, strain, medium): exp 6: tetM reporter, strain 168) was 0.578.
For “ACAGACGAAGGAGCCGCAAAGAAGTTATTAAGGGATGAATAAACCCTCAATATAAATGTCTCTCACTTATTTAAA”, the “cleaved RNA product abundance” value [1] was 0.292 and the “cleaved RNA product abundance” value [2] was 0.39.
In the case of “ACAGACGAAGGAGCCGCAAAGAAGTTATTAAGGGATGAATAAACCCTCAATATAATTATCTCTCACTTATTTAAA”, the “cleaved RNA product abundance” value [1] is reported as 0.293 and the “cleaved RNA product abundance” value [2] is reported as 0.33.
With “ACAGACGAAGGAGCCGCAAAGAAGTTATTAAGGGATGAATAAACCCTCAATATAGATATCTCTCACTTATTTAAA” the “cleaved RNA product abundance” value [1] was 0.365 and the “cleaved RNA product abundance” value [2] was 0.342.
With “ACAGACGAAGGAGCCGCAAAGAAGTTATTAAGGGATGAATAAACCCTCAATATATATATCTCTCACTTATTTAAA” the “cleaved RNA product abundance” value [1] was 0.488 and the “cleaved RNA product abundance” value [2] was 0.477.
“ACAGACGAAGGAGCCGCAAAGAAGTTATTAAGGGATGAATAAACCCTCAATGTAAATATCTCTCACTTATTTAAA” was tested, and the “cleaved RNA product abundance” value [2] was 0.19.
For “ACAGACGAAGGAGCCGCAAAGAAGTTATTAAGGGATGAATAAACCCTCACTATAAATATCTCTCACTTATTTAAA”, the “cleaved RNA product abundance” value [2] was 0.173.
“ACAGACGAAGGAGCCGCAAAGAAGTTATTAAGGGATGAATAAACCCTCAGTATAAATATCTCTCACTTATTTAAA” was tested, and the “cleaved RNA product abundance” value [2] was 0.211.
“ACAGACGAAGGAGCCGCAAAGAAGTTATTAAGGGATGAATAAACCCTCATTATAAATATCTCTCACTTATTTAAA” was tested, and the “cleaved RNA product abundance” value [1] was 0.13 and the “cleaved RNA product abundance” value [2] was 0.19.
“ACAGACGAAGGAGCCGCAAAGAAGTTATTAAGGGATGAATAAACCCTCCATATAAATATCTCTCACTTATTTAAA” was tested, and the “cleaved RNA product abundance” value [2] was 0.162.
“ACAGACGAAGGAGCCGCAAAGAAGTTATTAAGGGATGAATAAACCCTCTATATAAATATCTCTCACTTATTTAAA” was tested, and the “cleaved RNA product abundance” value [1] was 0.151.
“ACAGACGAAGGAGCCGCAAAGAAGTTATTAAGGGATGAATAAACCCTGAATATAAATATCTCTCACTTATTTAAA” was tested, and the “cleaved RNA product abundance” value [1] was 0.303 and the “cleaved RNA product abundance” value [2] was 0.388.
For “ACAGACGAAGGAGCCGCAAAGAAGTTATTAAGGGATGAATAAACCCTTAATATAAATATCTCTCACTTATTTAAA”, the “cleaved RNA product abundance” value [2] was 0.507.
For “ACAGACGAAGGAGCCGCAAAGAAGTTATTAAGGGATGAATAAACCTTCAATATAAATATCTCTCACTTATTTAAA”, the “cleaved RNA product abundance” value [1] was 0.096 and the “cleaved RNA product abundance” value [2] was 0.267.
For “ACAGACGAAGGAGCCGCAAAGAAGTTATTAAGGGATGAATAAACTCTCAATATAAATATCTCTCACTTATTTAAA”, the “cleaved RNA product abundance” value [2] was 0.14.
“ACAGACGAAGGAGCCGCAAAGAAGTTATTAAGGGATGAATAAATCCCTCAATATAAATATCTCTCACTTATTTAA” was tested, and the “cleaved RNA product abundance” value [2] was 0.537.
With “ACAGACGAAGGAGCCGCAAAGAAGTTATTAAGGGATGAATAAATCCTCAATATAAATATCTCTCACTTATTTAAA” the “cleaved RNA product abundance” value [2] was 0.306.
In the case of “ACAGACGAAGGAGCCGCAAAGAAGTTATTAAGGGATGAATAACACCACAATATAAATATCTCTCACTTATTTAAA”, the “cleaved RNA product abundance” value [2] is reported as 0.0909.
“ACAGACGAAGGAGCCGCAAAGAAGTTATTAAGGGATGAATAACACCTCAATATAAATATCTCTCACTTATTTAAA” was tested, and the “cleaved RNA product abundance” value [2] was 0.164.
